Tests used:
[1] = Sialic acid transfer reaction using various glycosyl acceptor substrates (monosaccharides, disaccharides, trisaccharide); assay type: biochemical; conditions: for Sialyltransferase activity: pH 5.0, 30° C., 500 mM NaCl
From the text: Cell homogenates prepared from E. coli cells into which JT-ISH-224-derived N1C0 had been introduced and from Photobacterium damselae strain JT0160 were each purified by ion exchange chromatography and hydroxyapatite chromatography to give an electrophoretically single band. The thus purified β-galactoside-α2,6-sialyltransferases were used in the following experiment in order to examine the presence or absence of sialyltransferase activity toward various monosaccharides, disaccharides and trisaccharides.
A reaction solution (24 μl) was prepared to contain CMP-^14C-NeuAc-containing CMP-NeuAc as a glycosyl donor substrate (10.9 nmol (8485 cpm), final concentration in the reaction solution: 0.455 mM), any of various glycosyl acceptor substrates dissolved in 20 mM cacodylate buffer (pH 5.0) (1 μmol, final concentration in the reaction solution: 42 mM), sialyltransferase (3.0 mU for JT-ISH-224-derived N1C0, 4.3 mU for JT0160) and NaCl (final concentration in the reaction solution: 500 mM), and reacted at 30° C. for 2 minutes or 60 minutes. The monosaccharides used as glycosyl acceptor substrates were the following 8 types: methyl-α-D-galactopyranoside (Gal-α-OMe), methyl-β-D-galactopyranoside (Gal-β-OMe), methyl-α-D-glucopyranoside (Glc-α-OMe), methyl-β-D-glucopyranoside (Glc-β-OMe), methyl-α-D-mannopyranoside (Man-α-OMe), methyl-β-D-mannopyranoside (Man-β-OMe), N-acetylgalactosamine ([…]), and N-acetylglucosamine ([…]). The disaccharides used were the following 5 types: lactose (Gal-β1,4-Glc), N-acetyllactosamine (Gal-β1,4-GlcNAc), methyl-β-D-galactopyranosyl-β1,3-N-acetylglucosaminide (Gal-β1,3-GlcNAc-β-OMe), methyl-α-D-galactopyranosyl-α1,3-galactopyranoside (Gal-α1,3-Gal-α-OMe), and methyl-β-D-galactopyranosyl-β1,3-galactopyranoside (Gal-β1,3-Gal-β-OMe). The trisaccharide used was 2′-fucosyllactose (Fuc-α1,2-Galβ1,4-Glc). It should be noted that the final concentration was set to 8.4 mM for the sugar chains shown in Table 4-2, i.e., methyl-α-D-galactopyranosyl-α1,3-[…] (Gal-α1,3-Gal-α-OMe), methyl-β-D-galactopyranosyl-β1,3-galactosaminide (Gal-β1,3-Gal-β-OMe) and 2′-fucosyllactose (Fuc-α1,2-Galβ1,4-Glc).
After completion of the enzymatic reaction, 1.98 ml of 5 mM phosphate buffer (pH 6.8) was added to the reaction solution to stop the enzymatic reaction. Then, the enzymatic reaction solution was diluted with 5 mM phosphate buffer (Ph 6.8) and applied in a volume of 2 ml to a AG1-×2Resin (PO4^3− form, 0.2×2 cm) column. This column was prepared as follows: AG1-×2Resin (OH^− form, BIO-RAD) was suspended in 1 M phosphate buffer (pH 6.8), and after 30 minutes, the resin was washed with distilled water and then suspended in distilled water. The eluate (0 to 2 ml) from this column was measured for its radioactivity. The eluate from this column contains the unreacted glycosyl acceptor substrate and the ^14C-NeuAc (N-acetylneuraminic acid)-bound reaction product which was generated by the reaction, whereas unreacted CMP-^14C-NeuAc is still retained on the column. Thus, the radioactivity of ^14C from each sialic acid-containing sugar chain generated as a result of the enzymatic reaction arises exclusively from the reaction product, so that the radioactivity of this fraction can be used to calculate the enzyme activity.
In the manner described above, the radioactivity of NeuAc transferred to each glycosyl acceptor substrate was measured to calculate the amount of transferred sialic acid.

[2] = Optimum pH, temperature and salt concentration for enzyme activity; assay type: biochemical
Method: The purified enzyme prepared in Example 4-1 was used to examine the optimum pH, optimum temperature and optimum salt concentration for JT-ISH-224-derived recombinant β-galactoside-α2,6-sialyltransferase N1C0.
Acetate buffer (pH 4.0, pH 4.5 and pH 5.0), cacodylate buffer (pH 5.0, pH 5.5, pH 6.0, pH 6.5 and pH 7.0), phosphate buffer (pH 7.0, pH 7.5 and pH 8.0) and TAPS buffer (pH 8.0, pH 8.5 and pH 9.0) were prepared and used for enzyme activity measurement at 25° C. at various pH values.
The enzyme activity was measured at an interval of 5° C. starting from 10° C. up to 50° C. using cacodylate buffer (pH 5.0).
The enzyme activity was measured at 30° C. using cacodylate buffer (pH 5.0) by adjusting the NaCl concentration in the reaction solution to 0 M, 0.1 M, 0.25 M, 0.5 M, 0.75 M, 1.0 M, 1.5 M or 2.0 M.

B1: ISH224-N1C0 (protein, listed as Photobacterium sp.)
chain: MSEENTQSIIKNDINKTIIDEEYVNLEPINQSNISFTKHSWVQTCGTQQLLTEQNKESISLSVVAPRLDDDEKYCFDFNGVSNKGEKYITKVTLNVVAPSLEVYVDHASLPTLQQLMDIIKSEEENPTAQRYIAWGRIVPTDEQMKELNITSFALINNHTPADLVQEIVKQAQTKHRLNVKLSSNTAHSFDNLVPILKELNSFNNVTVTNIDLYDDGSAEYVNLYNWRDTLNKTDNLKIGKDYLEDVINGINEDTSNTGTSSVYNWQKLYPANYHFLRKDYLTLEPSLHELRDYIGDSLKQMQWDGFKKFNSKQQELFLSIVNFDKQKLQNEYNSSNLPNFVFTGTTVWAGNHEREYYAKQQINVINNAINESSPHYLGNSYDLFFKGHPGGGIINTLIMQNYPSMVDIPSKISFEVLMMTDMLPDAVAGIASSLYFTIPAEKIKFIVFTSTETITDRETALRSPLVQVMIKLGIVKEENVLFWADLPNCETGVCIAV
[1]; 14 monosaccharides, disaccharides and trisaccharide
  acceptor substrate specificity compared to the known JT0160 enzyme (in words): wider range of acceptor substrate specificity
[1]; acceptor 2′-Fucosyllactose (Fuc-α1,2-Galβ1,4-Glc), 8.4 mM, lactose = 100
  Sialyltransferase activity Relative activity (%): 92.1%
[1]; acceptor 2′-Fucosyllactose (Fuc-α1,2-Galβ1,4-Glc), 8.4 mM
  Sialyltransferase activity: 1.316 nmol/min
[1]; acceptor Lactose (Galβ1,4-Glc), 42 mM, Table 4-1
  Sialyltransferase activity: 1.875 nmol/min
[1]; acceptor Lactose (Galβ1,4-Glc), 42 mM, Table 4-1, set to 100
  Sialyltransferase activity Relative activity (%): 100.0%
[1]; acceptor Lactose (Galβ1,4-Glc), series of Table 4-2 (other acceptors 8.4 mM)
  Sialyltransferase activity: 1.428 nmol/min
[1]; acceptor Lactose (Galβ1,4-Glc), series of Table 4-2, set to 100
  Sialyltransferase activity Relative activity (%): 100.0%
[1]; acceptor Methylαgalactopyranoside (Galα-OMe), 42 mM, lactose = 100
  Sialyltransferase activity Relative activity (%): 2.0%
[1]; acceptor Methylαgalactopyranoside (Galα-OMe), 42 mM
  Sialyltransferase activity: 0.038 nmol/min
[1]; acceptor Methylαgalactopyranosyl α1,3-galactopyranoside (Galα1,3-Galα-OMe), 8.4 mM, lactose = 100
  Sialyltransferase activity Relative activity (%): 1.6%
[1]; acceptor Methylαgalactopyranosyl α1,3-galactopyranoside (Galα1,3-Galα-OMe), 8.4 mM
  Sialyltransferase activity: 0.023 nmol/min
[1]; acceptor Methylαglucopyranoside (Glcα-OMe), 42 mM, lactose = 100
  Sialyltransferase activity Relative activity (%): 0.4%
[1]; acceptor Methylαglucopyranoside (Glcα-OMe), 42 mM
  Sialyltransferase activity: 0.008 nmol/min
[1]; acceptor Methylαmannopyranoside (Manα-OMe), 42 mM, lactose = 100
  Sialyltransferase activity Relative activity (%): 0.5%
[1]; acceptor Methylαmannopyranoside (Manα-OMe), 42 mM
  Sialyltransferase activity: 0.010 nmol/min
[1]; acceptor Methylβ-galactopyranosylβ1,3-N-acetylglucosaminide (Galβ1,3-GlcNAcβ-OMe), 42 mM, lactose = 100
  Sialyltransferase activity Relative activity (%): 76.5%
[1]; acceptor Methylβ-galactopyranosylβ1,3-N-acetylglucosaminide (Galβ1,3-GlcNAcβ-OMe), 42 mM
  Sialyltransferase activity: 1.435 nmol/min
[1]; acceptor Methylβgalactopyranoside (Galβ-OMe), 42 mM, lactose = 100
  Sialyltransferase activity Relative activity (%): 59.2%
[1]; acceptor Methylβgalactopyranoside (Galβ-OMe), 42 mM
  Sialyltransferase activity: 1.110 nmol/min
[1]; acceptor Methylβgalactopyranosyl β1,3-galactopyranoside (Galβ1,3-Galβ-OMe), 8.4 mM, lactose = 100
  Sialyltransferase activity Relative activity (%): 67.5%
[1]; acceptor Methylβgalactopyranosyl β1,3-galactopyranoside (Galβ1,3-Galβ-OMe), 8.4 mM
  Sialyltransferase activity: 0.964 nmol/min
[1]; acceptor Methylβglucopyranoside (Glcβ-OMe), 42 mM, lactose = 100
  Sialyltransferase activity Relative activity (%): 0.5%
[1]; acceptor Methylβglucopyranoside (Glcβ-OMe), 42 mM
  Sialyltransferase activity: 0.009 nmol/min
[1]; acceptor Methylβmannopyranoside (Manβ-OMe), 42 mM, lactose = 100
  Sialyltransferase activity Relative activity (%): 0.4%
[1]; acceptor Methylβmannopyranoside (Manβ-OMe), 42 mM
  Sialyltransferase activity: 0.008 nmol/min
[1]; acceptor N-Acetylgalactosamine (GalNAc), 42 mM, lactose = 100
  Sialyltransferase activity Relative activity (%): 12.2%
[1]; acceptor N-Acetylgalactosamine (GalNAc), 42 mM
  Sialyltransferase activity: 0.228 nmol/min
[1]; acceptor N-Acetylglucosamine (GlcNAc), 42 mM, lactose = 100
  Sialyltransferase activity Relative activity (%): 0.4%
[1]; acceptor N-Acetylglucosamine (GlcNAc), 42 mM
  Sialyltransferase activity: 0.008 nmol/min
[1]; acceptor N-Acetyllactosamine (Gatβ1,4-GlcNAc), 42 mM, lactose = 100
  Sialyltransferase activity Relative activity (%): 99.3%
[1]; acceptor N-Acetyllactosamine (Gatβ1,4-GlcNAc), 42 mM
  Sialyltransferase activity: 1.861 nmol/min
[2]; 25° C., acetate, cacodylate, phosphate, TAPS buffers pH 4.0-9.0
  pH of maximum enzyme activity (optimum pH): 5.0
[2]; cacodylate buffer (pH 5.0), 10° C. to 50° C.
  temperature of maximum enzyme activity (optimum temperature): 30 °C

Reference: patent publication US8187838B2, “β-Galactoside-α2, 6-sialyltransferase, a gene encoding thereof, and a method for producing thereof” (Japan Tobacco Inc., priority 2006, dated 2012)
